According to PMC7155755, “Binding of the Human 14-3-3 Isoforms to Distinct Sites in the Leucine-Rich Repeat Kinase 2” (Frontiers in Neuroscience, 2020):
Where two headings read alike, the source gives them in different places. Each block holds one molecule with its values, some of them ahead of it. Square brackets hold non-standard residues; d marks the D form. Ends that are not written are not given here. fluorescein = N-terminal fluorescein label; pT = C[C@@H](OP(=O)(O)O)[C@H](N)C(=O)O

Columns and labels:
14-3-3η = 14-3-3η (UniProt Q04917); experiment: fluorescence polarization direct binding; details: reference: unphosphorylated T2524 peptide; sites T2524
14-3-3β = 14-3-3β (UniProt P31946); experiment: fluorescence polarization direct binding; details: reference: unphosphorylated T2524 peptide; sites T2524
14-3-3ε = 14-3-3ε (UniProt P62258); experiment: fluorescence polarization direct binding; details: reference: unphosphorylated T2524 peptide; sites T2524
14-3-3ζ = 14-3-3ζ (UniProt P63104); experiment: fluorescence polarization direct binding; details: reference: unphosphorylated T2524 peptide; sites T2524
14-3-3θ = 14-3-3θ (UniProt P27348); experiment: fluorescence polarization direct binding; details: reference: unphosphorylated T2524 peptide; sites T2524
14-3-3γ = 14-3-3γ (UniProt P61981); experiment: fluorescence polarization direct binding; details: reference: unphosphorylated T2524 peptide; sites T2524
14-3-3σ = 14-3-3σ (UniProt P31947); experiment: fluorescence polarization direct binding; details: reference: unphosphorylated T2524 peptide; sites T2524
R1441C/pS1444 = molecular target: T1, R1441C/pS1444 (R1441C (stands in the printed letters)); experiment: fluorescence polarisation; direct binding; dilution series of 14-3-3 isoform (at least 5 μM down to picomolar) mixed with 1 nM fluorescein-labelled peptide; 20 mM MOPS pH 7, 150 mM NaCl, 0.005% CHAPS; 384-well plates
T1 construct: LRRK2-derived peptide of the Roc domain with the familial PD mutation R1441C, phosphorylated at S1444; source: synthetic peptide (Peps4LS GmbH)
T1 peptide: fluorescein-LFNIKACAS[pS]SPVILVGT

pS1444 = experiment: as above
pS910/pS935 [1] = experiment: as above
Sequence of pS910/pS935 (Q5S007 906-940): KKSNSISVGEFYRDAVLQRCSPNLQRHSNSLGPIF

Q930R/pS935 = experiment: as above
pS910/pS935 [2] = experiment: as above; remark: listed apart in the source
[3] = molecular target: LRRK2 pS910/pS935 peptide (Homo sapiens, UniProt Q5S007)
Sequence of LRRK2 pS910/pS935 peptide (Q5S007 whole entry, canonical isoform): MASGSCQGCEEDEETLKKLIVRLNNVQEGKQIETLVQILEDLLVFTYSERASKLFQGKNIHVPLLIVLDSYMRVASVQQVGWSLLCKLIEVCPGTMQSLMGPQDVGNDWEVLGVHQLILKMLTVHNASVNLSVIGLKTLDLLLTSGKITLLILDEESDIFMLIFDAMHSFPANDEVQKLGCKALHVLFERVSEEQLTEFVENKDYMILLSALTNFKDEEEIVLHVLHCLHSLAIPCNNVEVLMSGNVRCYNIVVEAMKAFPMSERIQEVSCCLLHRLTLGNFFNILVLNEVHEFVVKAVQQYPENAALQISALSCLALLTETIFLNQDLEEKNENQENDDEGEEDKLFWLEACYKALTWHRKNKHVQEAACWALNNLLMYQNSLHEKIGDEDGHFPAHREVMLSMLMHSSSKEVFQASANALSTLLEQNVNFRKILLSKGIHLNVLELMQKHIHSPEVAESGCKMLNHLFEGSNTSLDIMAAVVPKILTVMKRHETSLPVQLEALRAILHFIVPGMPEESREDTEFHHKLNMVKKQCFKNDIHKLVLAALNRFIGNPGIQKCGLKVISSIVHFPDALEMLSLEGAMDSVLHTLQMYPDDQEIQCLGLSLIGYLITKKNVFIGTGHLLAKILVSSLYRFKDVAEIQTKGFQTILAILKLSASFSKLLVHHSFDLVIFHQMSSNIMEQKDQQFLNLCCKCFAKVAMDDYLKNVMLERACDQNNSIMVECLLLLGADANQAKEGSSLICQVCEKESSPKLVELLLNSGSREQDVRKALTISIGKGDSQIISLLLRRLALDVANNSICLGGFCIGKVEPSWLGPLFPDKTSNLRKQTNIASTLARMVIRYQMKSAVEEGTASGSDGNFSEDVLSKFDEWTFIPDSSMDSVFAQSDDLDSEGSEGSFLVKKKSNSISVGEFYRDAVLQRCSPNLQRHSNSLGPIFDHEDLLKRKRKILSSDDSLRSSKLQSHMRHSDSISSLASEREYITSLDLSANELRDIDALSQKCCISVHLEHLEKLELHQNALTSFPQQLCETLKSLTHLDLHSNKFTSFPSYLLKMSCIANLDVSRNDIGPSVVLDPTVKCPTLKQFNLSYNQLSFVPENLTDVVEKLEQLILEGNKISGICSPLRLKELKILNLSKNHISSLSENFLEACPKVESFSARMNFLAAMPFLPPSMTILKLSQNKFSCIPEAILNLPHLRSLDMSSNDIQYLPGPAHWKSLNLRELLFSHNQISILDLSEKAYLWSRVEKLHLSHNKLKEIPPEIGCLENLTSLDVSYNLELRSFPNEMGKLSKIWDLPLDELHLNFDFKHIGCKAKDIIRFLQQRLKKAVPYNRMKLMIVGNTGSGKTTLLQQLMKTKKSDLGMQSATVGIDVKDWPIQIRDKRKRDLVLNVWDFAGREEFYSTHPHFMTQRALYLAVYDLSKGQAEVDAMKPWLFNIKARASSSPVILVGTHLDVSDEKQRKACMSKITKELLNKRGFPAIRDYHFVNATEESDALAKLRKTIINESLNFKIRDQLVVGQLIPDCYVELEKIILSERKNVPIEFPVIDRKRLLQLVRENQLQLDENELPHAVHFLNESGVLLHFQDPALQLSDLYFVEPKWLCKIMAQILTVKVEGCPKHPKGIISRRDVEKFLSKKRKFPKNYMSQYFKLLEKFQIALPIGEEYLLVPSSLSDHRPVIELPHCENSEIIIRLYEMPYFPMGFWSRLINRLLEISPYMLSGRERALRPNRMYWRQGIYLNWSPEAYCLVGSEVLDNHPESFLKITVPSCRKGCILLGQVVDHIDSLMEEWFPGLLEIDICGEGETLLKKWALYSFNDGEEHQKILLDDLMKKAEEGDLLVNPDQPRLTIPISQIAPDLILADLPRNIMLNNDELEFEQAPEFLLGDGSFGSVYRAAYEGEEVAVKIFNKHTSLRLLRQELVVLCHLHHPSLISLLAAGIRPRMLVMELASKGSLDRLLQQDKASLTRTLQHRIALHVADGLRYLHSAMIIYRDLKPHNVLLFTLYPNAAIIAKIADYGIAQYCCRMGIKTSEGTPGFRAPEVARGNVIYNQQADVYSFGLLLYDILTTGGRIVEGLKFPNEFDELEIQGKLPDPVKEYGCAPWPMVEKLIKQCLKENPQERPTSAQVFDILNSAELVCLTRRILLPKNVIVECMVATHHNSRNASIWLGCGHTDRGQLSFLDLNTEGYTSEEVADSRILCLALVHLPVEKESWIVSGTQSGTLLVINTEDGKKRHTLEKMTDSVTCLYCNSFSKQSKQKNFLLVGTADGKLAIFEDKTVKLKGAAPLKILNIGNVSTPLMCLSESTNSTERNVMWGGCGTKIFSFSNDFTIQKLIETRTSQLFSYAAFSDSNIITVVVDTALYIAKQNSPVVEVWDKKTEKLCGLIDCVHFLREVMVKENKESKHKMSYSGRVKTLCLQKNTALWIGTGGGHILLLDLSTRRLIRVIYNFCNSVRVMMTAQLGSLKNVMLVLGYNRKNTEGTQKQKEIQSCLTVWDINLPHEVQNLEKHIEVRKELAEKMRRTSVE

[4] = molecular target: T2, human 14-3-3 isoform θ (recombinant, MBP tag removed) (human, UniProt P27348 1-245); experiment: fluorescence polarisation; direct binding; dilution series of 14-3-3 isoform (at least 5 μM down to picomolar) mixed with 1 nM fluorescein-labelled peptide; 20 mM MOPS pH 7, 150 mM NaCl, 0.005% CHAPS; 384-well plates; details: both partners purified
T2 construct: 14-3-3 theta, human; Expressed from pMAL2CX plasmids; also called 14-3-3θ; source: E. coli BL21DE3, purified (maltose-agarose, Factor Xa, anion exchange)
T2 sequence (looked up): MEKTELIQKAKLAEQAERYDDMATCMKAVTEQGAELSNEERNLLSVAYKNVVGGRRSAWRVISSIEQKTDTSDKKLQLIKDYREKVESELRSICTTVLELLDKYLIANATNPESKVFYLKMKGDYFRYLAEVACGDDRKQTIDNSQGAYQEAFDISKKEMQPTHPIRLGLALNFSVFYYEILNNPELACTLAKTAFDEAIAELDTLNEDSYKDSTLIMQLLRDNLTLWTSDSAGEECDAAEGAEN

[5] = molecular target: T3, human 14-3-3 isoform η (recombinant, MBP tag removed) (human, UniProt Q04917 1-246); experiment: as above; details: both partners purified
T3 construct: 14-3-3 eta, human; Expressed from pMAL2CX plasmids; also called 14-3-3η; source: E. coli BL21DE3, purified (maltose-agarose, Factor Xa, anion exchange)
T3 sequence (looked up): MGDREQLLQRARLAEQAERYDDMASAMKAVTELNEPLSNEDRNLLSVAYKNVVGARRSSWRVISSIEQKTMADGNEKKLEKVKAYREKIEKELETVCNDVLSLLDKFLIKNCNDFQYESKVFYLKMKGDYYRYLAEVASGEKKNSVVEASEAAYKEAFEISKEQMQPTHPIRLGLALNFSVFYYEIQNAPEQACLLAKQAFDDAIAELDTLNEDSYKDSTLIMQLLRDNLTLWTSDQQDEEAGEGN

[6] = molecular target: T4, human 14-3-3 isoform β (recombinant, MBP tag removed) (human, UniProt P31946 1-246); experiment: as above; details: both partners purified
T4 construct: 14-3-3 beta, human; Expressed from pMAL2CX plasmids; also called 14-3-3β; source: E. coli BL21DE3, purified (maltose-agarose, Factor Xa, anion exchange)
T4 sequence (looked up): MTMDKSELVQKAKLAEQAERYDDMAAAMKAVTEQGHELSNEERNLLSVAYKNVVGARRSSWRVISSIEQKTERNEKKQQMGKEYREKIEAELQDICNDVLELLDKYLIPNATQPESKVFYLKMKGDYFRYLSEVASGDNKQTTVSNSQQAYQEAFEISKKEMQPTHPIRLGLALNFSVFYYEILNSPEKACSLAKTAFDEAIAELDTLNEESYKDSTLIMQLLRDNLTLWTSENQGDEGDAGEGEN

[7] = molecular target: T5, human 14-3-3 isoform ε (recombinant, MBP tag removed) (human, UniProt P62258 1-255); experiment: as above; details: both partners purified
T5 construct: 14-3-3 epsilon, human; Expressed from pMAL2CX plasmids; also called 14-3-3ε; source: E. coli BL21DE3, purified (maltose-agarose, Factor Xa, anion exchange)
T5 sequence (looked up): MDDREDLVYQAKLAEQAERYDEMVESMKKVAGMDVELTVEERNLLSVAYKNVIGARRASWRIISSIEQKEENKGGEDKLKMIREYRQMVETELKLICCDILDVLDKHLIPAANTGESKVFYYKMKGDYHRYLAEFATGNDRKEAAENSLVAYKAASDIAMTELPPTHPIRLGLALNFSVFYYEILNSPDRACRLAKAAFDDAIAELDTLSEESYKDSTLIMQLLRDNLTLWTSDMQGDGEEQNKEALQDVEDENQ

[8] = molecular target: T6, human 14-3-3 isoform ζ (recombinant, MBP tag removed) (human, UniProt P63104 1-245); experiment: as above; details: both partners purified
T6 construct: 14-3-3 zeta, human; Expressed from pMAL2CX plasmids; also called 14-3-3ζ; source: E. coli BL21DE3, purified (maltose-agarose, Factor Xa, anion exchange)
T6 sequence (looked up): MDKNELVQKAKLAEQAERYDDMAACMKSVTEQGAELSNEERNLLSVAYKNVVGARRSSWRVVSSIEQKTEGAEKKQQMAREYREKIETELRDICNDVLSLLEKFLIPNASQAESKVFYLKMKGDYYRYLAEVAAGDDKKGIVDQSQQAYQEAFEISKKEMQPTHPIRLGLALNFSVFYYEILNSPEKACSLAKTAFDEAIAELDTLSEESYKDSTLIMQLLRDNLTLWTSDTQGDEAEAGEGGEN

[9] = molecular target: T7, human 14-3-3 isoform σ (recombinant, MBP tag removed) (human, UniProt P31947 1-248); experiment: as above; details: both partners purified
T7 construct: 14-3-3 sigma, human; Expressed from pMAL2CX plasmids; also called 14-3-3σ; source: E. coli BL21DE3, purified (maltose-agarose, Factor Xa, anion exchange)
T7 sequence (looked up): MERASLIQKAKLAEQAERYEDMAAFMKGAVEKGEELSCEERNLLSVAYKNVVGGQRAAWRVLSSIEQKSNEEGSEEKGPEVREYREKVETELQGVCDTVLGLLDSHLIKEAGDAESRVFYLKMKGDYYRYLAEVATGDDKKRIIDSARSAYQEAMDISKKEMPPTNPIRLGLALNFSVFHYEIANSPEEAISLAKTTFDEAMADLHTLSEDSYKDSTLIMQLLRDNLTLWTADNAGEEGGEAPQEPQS

binding against the reference (14-3-3η): gained
binding against the reference (14-3-3β): gained
binding against the reference (14-3-3ε): gained
binding against the reference (14-3-3ζ): gained
binding against the reference (14-3-3θ): gained
binding against the reference (14-3-3γ): gained
binding against the reference (14-3-3σ): gained
Molecule: LRRK2 (leucine-rich repeat kinase 2) C-terminus (from UniProt Q5S007) pT2524 peptide

fold decrease in affinity against pS1444 (R1441C/pS1444): > 30 fold
Kd (pS1444): 106 nM
Kd (pS910/pS935 [1]): 3.2 nM
Kd (Q930R/pS935): 11.1 nM
Kd (pS910/pS935 [2]): 4.8 nM
Molecule: human 14-3-3 isoform γ (recombinant, MBP tag removed) (from UniProt P61981 1-247) (natural protein)

Kd [3]: 61 nM
B1: 14-3-3σ (protein)
chain: T7 sequence (looked up)
modifications: pS910+pS935

binding result [4]: binds
binding result [5]: binds
binding result [6]: binds
binding result [7]: binds
binding result [8]: binds
binding result [9]: binds
B2: pT2524 (peptide)
peptide: fluorescein-HIEVRKELAEKMRR[pT]SVE
notes: LRRK2-derived peptide of the very C-terminus, phosphorylated at T2524; source: synthetic peptide (Peps4LS GmbH)
